Assay results reported in PMC9482650, “Quantitative fragmentomics allow affinity mapping of interactomes” (Nature Communications, 2022).
Values belong to the binder of their own block, whether it stands above or below them.

How the values were obtained:
Assay in all cases: holdup assay
Parameters in all cases: key: below the threshold = too weak to quantify, mostly under pKd 3.1 to 4
IL16_1, Q14005 = target: IL16_1, Q14005
LNX1_1, Q8TBB1 = target: LNX1_1, Q8TBB1
ARHGEF11, O15085 = target: T1, ARHGEF11, O15085
T1 sequence (O15085 42-136, limits assumed, looked up): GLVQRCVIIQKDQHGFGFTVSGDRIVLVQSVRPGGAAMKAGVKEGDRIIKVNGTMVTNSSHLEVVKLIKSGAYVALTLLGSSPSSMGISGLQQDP

HTRA3, P83110 = target: T2, HTRA3, P83110
T2 sequence (P83110 354-453, limits assumed, looked up): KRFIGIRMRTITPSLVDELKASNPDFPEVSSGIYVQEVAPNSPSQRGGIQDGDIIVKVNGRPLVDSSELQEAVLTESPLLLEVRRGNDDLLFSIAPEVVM

TJP1_3, Q07157 = target: TJP1_3, Q07157
Sequence of TJP1_3, Q07157 (Q07157 416-512): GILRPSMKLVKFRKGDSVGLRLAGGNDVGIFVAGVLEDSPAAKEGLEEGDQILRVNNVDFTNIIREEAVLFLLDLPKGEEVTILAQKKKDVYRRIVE

GRASP, Q7Z6J2 = target: GRASP, Q7Z6J2
Sequence of GRASP, Q7Z6J2 (Q7Z6J2 96-193): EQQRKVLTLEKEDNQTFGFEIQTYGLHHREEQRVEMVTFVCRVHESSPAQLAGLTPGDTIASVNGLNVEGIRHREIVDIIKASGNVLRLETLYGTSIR

NHERF4_1, Q86UT5-2 = target: NHERF4_1, Q86UT5-2
Sequence of NHERF4_1, Q86UT5-2 (Q86UT5 other isoform, or with tags, fused parts or gaps): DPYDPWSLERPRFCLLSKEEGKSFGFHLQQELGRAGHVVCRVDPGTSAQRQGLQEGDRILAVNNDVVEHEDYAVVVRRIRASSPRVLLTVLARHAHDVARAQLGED

GIPC2, Q8TF65 = target: GIPC2, Q8TF65
Sequence of GIPC2, Q8TF65 (Q8TF65 112-203): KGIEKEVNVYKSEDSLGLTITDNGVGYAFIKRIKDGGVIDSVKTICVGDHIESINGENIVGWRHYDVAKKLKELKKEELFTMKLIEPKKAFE

NHERF4_4, Q86UT5 = target: NHERF4_4, Q86UT5
Sequence of NHERF4_4, Q86UT5 (Q86UT5 464-550): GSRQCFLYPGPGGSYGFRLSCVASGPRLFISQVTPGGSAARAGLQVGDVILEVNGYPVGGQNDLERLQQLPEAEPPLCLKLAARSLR

DLG5_1, Q8TDM6 = target: DLG5_1, Q8TDM6
Sequence of DLG5_1, Q8TDM6 (Q8TDM6 617-713): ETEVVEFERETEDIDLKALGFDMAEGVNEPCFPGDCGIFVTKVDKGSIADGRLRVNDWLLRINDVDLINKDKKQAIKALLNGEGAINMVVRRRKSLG

LRRC7, Q96NW7 = target: T3, LRRC7, Q96NW7
T3 sequence (Q96NW7 1440-1537, limits assumed, looked up): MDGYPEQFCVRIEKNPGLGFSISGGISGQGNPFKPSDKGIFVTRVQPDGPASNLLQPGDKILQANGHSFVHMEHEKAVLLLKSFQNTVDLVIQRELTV

TJP1_2, Q07157 = target: TJP1_2, Q07157
Sequence of TJP1_2, Q07157 (Q07157 181-274): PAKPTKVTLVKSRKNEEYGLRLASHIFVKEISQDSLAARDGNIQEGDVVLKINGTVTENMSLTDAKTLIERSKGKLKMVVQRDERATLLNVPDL

LDB3, O75112 = target: LDB3, O75112
Sequence of LDB3, O75112 (O75112 1-94): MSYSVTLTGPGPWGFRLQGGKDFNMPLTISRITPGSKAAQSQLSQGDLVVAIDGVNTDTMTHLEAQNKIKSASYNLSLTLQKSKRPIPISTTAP

NHERF4_2, Q86UT5 = target: NHERF4_2, Q86UT5
Sequence of NHERF4_2, Q86UT5 (Q86UT5 220-308): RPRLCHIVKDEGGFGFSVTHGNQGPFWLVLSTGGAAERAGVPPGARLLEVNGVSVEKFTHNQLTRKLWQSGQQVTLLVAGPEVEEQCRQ

RHPN1, Q8TCX5 = target: T4, RHPN1, Q8TCX5
T4 sequence (Q8TCX5 508-602, limits assumed, looked up): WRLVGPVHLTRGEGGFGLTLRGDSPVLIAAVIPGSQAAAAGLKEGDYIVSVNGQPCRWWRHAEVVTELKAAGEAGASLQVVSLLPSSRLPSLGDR

LNX1_3, Q8TBB1 = target: LNX1_3, Q8TBB1
Sequence of LNX1_3, Q8TBB1 (Q8TBB1 500-596): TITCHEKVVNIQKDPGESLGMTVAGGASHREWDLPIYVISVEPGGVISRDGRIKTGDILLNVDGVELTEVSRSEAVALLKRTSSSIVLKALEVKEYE

MAGI1_2, Q96QZ7 = target: MAGI1_2, Q96QZ7
Sequence of MAGI1_2, Q96QZ7 (Q96QZ7 456-580): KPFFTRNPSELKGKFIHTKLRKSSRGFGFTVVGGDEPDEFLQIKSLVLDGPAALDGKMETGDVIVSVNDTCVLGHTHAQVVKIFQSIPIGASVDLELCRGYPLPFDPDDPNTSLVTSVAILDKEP

MPDZ_12, O75970 = target: T5, MPDZ_12, O75970
T5 sequence (O75970 1857-1958, limits assumed, looked up): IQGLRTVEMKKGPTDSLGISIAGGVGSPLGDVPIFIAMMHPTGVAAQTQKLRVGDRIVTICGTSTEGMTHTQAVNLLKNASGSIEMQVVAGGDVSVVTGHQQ

Inadl_10, Q8NI35 = target: Inadl_10, Q8NI35
Sequence of Inadl_10, Q8NI35 (Q8NI35 1673-1763): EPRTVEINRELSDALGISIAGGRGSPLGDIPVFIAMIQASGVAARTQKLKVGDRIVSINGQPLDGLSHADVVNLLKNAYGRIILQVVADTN

LNX2_3, Q8N448 = target: T6, LNX2_3, Q8N448
T6 sequence (Q8N448 463-564, limits assumed, looked up): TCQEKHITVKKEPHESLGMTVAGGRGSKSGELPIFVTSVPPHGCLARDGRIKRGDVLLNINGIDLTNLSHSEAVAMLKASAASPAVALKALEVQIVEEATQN

GRIP1_3, Q9Y3R0 = target: T7, GRIP1_3, Q9Y3R0
T7 sequence (Q9Y3R0 247-346, limits assumed, looked up): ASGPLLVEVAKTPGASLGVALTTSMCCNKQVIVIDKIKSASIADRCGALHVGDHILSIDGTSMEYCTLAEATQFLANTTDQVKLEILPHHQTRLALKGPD

DVL3, Q92997 = target: T8, DVL3, Q92997
T8 sequence (Q92997 244-331, limits assumed, looked up): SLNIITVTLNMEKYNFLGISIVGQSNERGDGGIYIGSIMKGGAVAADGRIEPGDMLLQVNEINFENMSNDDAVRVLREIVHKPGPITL

GRIP2_5, Q9C0E4 = target: GRIP2_5, Q9C0E4
Sequence of GRIP2_5, Q9C0E4 (Q9C0E4 544-642): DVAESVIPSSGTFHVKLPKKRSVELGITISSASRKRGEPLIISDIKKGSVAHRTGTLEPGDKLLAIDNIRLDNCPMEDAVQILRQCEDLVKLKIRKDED

SCRIB_1, Q14160 = target: SCRIB_1, Q14160
Sequence of SCRIB_1, Q14160 (Q14160 718-814): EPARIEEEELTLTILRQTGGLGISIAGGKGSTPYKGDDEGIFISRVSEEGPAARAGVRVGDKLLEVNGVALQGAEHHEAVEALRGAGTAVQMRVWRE

PDZRN4_1, Q6ZMN7 = target: PDZRN4_1, Q6ZMN7
Sequence of PDZRN4_1, Q6ZMN7 (Q6ZMN7 213-318): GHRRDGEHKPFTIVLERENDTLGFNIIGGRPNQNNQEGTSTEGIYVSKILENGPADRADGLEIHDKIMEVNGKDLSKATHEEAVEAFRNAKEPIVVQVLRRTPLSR

CARD11, Q9BXL7 = target: T9, CARD11, Q9BXL7
T9 sequence (Q9BXL7 662-765, limits assumed, looked up): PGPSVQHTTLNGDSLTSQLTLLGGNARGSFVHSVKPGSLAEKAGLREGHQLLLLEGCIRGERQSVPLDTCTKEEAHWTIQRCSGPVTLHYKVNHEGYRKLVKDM

MAGI2_3, Q86UL8 = target: MAGI2_3, Q86UL8
Sequence of MAGI2_3, Q86UL8 (Q86UL8 600-682): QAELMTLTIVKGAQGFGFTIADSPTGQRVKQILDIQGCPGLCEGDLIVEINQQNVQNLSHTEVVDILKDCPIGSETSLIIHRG

GRIP1_7, Q9Y3R0 = target: T10, GRIP1_7, Q9Y3R0
T10 sequence (Q9Y3R0 999-1096, limits assumed, looked up): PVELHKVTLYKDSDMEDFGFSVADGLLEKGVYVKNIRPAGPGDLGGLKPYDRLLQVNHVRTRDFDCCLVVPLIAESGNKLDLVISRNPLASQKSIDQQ

[1] = modified: phospho on T at position -1 from the C-terminal residue
[2] = plain residues with an end cap or a label only (N-terminal biotin on a linker: ado-ado)
[3] = modified: phospho on T at position -2 from the C-terminal residue

Sequence of IL16_1, Q14005 (Q14005 210-306): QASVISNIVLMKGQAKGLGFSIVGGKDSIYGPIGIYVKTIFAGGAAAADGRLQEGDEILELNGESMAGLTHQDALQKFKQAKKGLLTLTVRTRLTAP
Sequence of LNX1_1, Q8TBB1 (Q8TBB1 261-371): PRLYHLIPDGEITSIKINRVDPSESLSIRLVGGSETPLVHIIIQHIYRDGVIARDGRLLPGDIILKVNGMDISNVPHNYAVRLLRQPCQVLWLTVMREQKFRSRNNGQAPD

Binder: GQSVDLVFPV [AKIP1, Q9NQ31]
pKd (IL16_1, Q14005; [2]): below the threshold
pKd (LNX1_1, Q8TBB1; [2]): 3.66
pKd (ARHGEF11, O15085; [2]): 4.09
pKd (HTRA3, P83110; [2]): below the threshold
pKd (TJP1_3, Q07157; [2]): below the threshold
pKd (GRASP, Q7Z6J2; [2]): 3.48
pKd (NHERF4_1, Q86UT5-2; [2]): below the threshold
pKd (GIPC2, Q8TF65; [2]): below the threshold
pKd (NHERF4_4, Q86UT5; [2]): below the threshold
pKd (DLG5_1, Q8TDM6; [2]): 3.48
pKd (LRRC7, Q96NW7; [2]): below the threshold
pKd (TJP1_2, Q07157; [2]): below the threshold
pKd (LDB3, O75112; [2]): below the threshold
pKd (NHERF4_2, Q86UT5; [2]): below the threshold
pKd (RHPN1, Q8TCX5; [2]): below the threshold
pKd (LNX1_3, Q8TBB1; [2]): 3.96
pKd (MAGI1_2, Q96QZ7; [2]): below the threshold
pKd (MPDZ_12, O75970; [2]): 3.58
pKd (Inadl_10, Q8NI35; [2]): below the threshold
pKd (LNX2_3, Q8N448; [2]): below the threshold
pKd (GRIP1_3, Q9Y3R0; [2]): below the threshold
pKd (DVL3, Q92997; [2]): below the threshold
pKd (GRIP2_5, Q9C0E4; [2]): below the threshold
pKd (SCRIB_1, Q14160; [2]): below the threshold
pKd (PDZRN4_1, Q6ZMN7; [2]): below the threshold
pKd (CARD11, Q9BXL7; [2]): 3.63
pKd (MAGI2_3, Q86UL8; [2]): below the threshold
pKd (GRIP1_7, Q9Y3R0; [2]): below the threshold

Binder: SMLNRRTTPV [CACNG4, Q9UBN1]
pKd (IL16_1, Q14005; [2]): below the threshold
pKd (LNX1_1, Q8TBB1; [2]): below the threshold
pKd (ARHGEF11, O15085; [2]): 3.89
pKd (HTRA3, P83110; [2]): below the threshold
pKd (TJP1_3, Q07157; [2]): below the threshold
pKd (GRASP, Q7Z6J2; [2]): 4.3
pKd (NHERF4_1, Q86UT5-2; [2]): below the threshold
pKd (GIPC2, Q8TF65; [2]): below the threshold
pKd (NHERF4_4, Q86UT5; [2]): below the threshold
pKd (DLG5_1, Q8TDM6; [2]): below the threshold
pKd (LRRC7, Q96NW7; [2]): below the threshold
pKd (TJP1_2, Q07157; [2]): below the threshold
pKd (LDB3, O75112; [2]): below the threshold
pKd (NHERF4_2, Q86UT5; [2]): below the threshold
pKd (RHPN1, Q8TCX5; [2]): below the threshold
pKd (LNX1_3, Q8TBB1; [2]): below the threshold
pKd (MAGI1_2, Q96QZ7; [2]): 4.82
pKd (MPDZ_12, O75970; [2]): below the threshold
pKd (Inadl_10, Q8NI35; [2]): below the threshold
pKd (LNX2_3, Q8N448; [2]): below the threshold
pKd (GRIP1_3, Q9Y3R0; [2]): below the threshold
pKd (DVL3, Q92997; [2]): below the threshold
pKd (GRIP2_5, Q9C0E4; [2]): below the threshold
pKd (SCRIB_1, Q14160; [2]): 3.56
pKd (PDZRN4_1, Q6ZMN7; [2]): 3.75
pKd (CARD11, Q9BXL7; [2]): below the threshold
pKd (MAGI2_3, Q86UL8; [2]): below the threshold
pKd (GRIP1_7, Q9Y3R0; [2]): below the threshold

Next, values leading:

pKd (IL16_1, Q14005; [1]): 3.46
pKd (LNX1_1, Q8TBB1; [1]): 4.63
pKd (ARHGEF11, O15085; [1]): 4.29
pKd (HTRA3, P83110; [1]): 3.34
pKd (TJP1_3, Q07157; [1]): below the threshold
pKd (GRASP, Q7Z6J2; [1]): 3.8
pKd (NHERF4_1, Q86UT5-2; [1]): 4.23
pKd (GIPC2, Q8TF65; [1]): 3.55
pKd (NHERF4_4, Q86UT5; [1]): below the threshold
pKd (DLG5_1, Q8TDM6; [1]): below the threshold
pKd (LRRC7, Q96NW7; [1]): 3.47
pKd (TJP1_2, Q07157; [1]): below the threshold
pKd (LDB3, O75112; [1]): 3.62
pKd (NHERF4_2, Q86UT5; [1]): below the threshold
pKd (RHPN1, Q8TCX5; [1]): 3.62
pKd (LNX1_3, Q8TBB1; [1]): 3.39
pKd (MAGI1_2, Q96QZ7; [1]): 4.32
pKd (MPDZ_12, O75970; [1]): below the threshold
pKd (Inadl_10, Q8NI35; [1]): 3.54
pKd (LNX2_3, Q8N448; [1]): below the threshold
pKd (GRIP1_3, Q9Y3R0; [1]): 3.34
pKd (DVL3, Q92997; [1]): below the threshold
pKd (GRIP2_5, Q9C0E4; [1]): below the threshold
pKd (SCRIB_1, Q14160; [1]): 4.02
pKd (PDZRN4_1, Q6ZMN7; [1]): 4.31
pKd (CARD11, Q9BXL7; [1]): below the threshold
pKd (MAGI2_3, Q86UL8; [1]): below the threshold
pKd (GRIP1_7, Q9Y3R0; [1]): 3.48
Binder: RRVRKLPSTTL [RPS6KA1_-1P, Q15418]

pKd (IL16_1, Q14005; [3]): below the threshold
pKd (LNX1_1, Q8TBB1; [3]): below the threshold
pKd (ARHGEF11, O15085; [3]): below the threshold
pKd (HTRA3, P83110; [3]): below the threshold
pKd (TJP1_3, Q07157; [3]): below the threshold
pKd (GRASP, Q7Z6J2; [3]): below the threshold
pKd (NHERF4_1, Q86UT5-2; [3]): 3.69
pKd (GIPC2, Q8TF65; [3]): below the threshold
pKd (NHERF4_4, Q86UT5; [3]): below the threshold
pKd (DLG5_1, Q8TDM6; [3]): below the threshold
pKd (LRRC7, Q96NW7; [3]): below the threshold
pKd (TJP1_2, Q07157; [3]): below the threshold
pKd (LDB3, O75112; [3]): 3.47
pKd (NHERF4_2, Q86UT5; [3]): below the threshold
pKd (RHPN1, Q8TCX5; [3]): below the threshold
pKd (LNX1_3, Q8TBB1; [3]): below the threshold
pKd (MAGI1_2, Q96QZ7; [3]): below the threshold
pKd (MPDZ_12, O75970; [3]): below the threshold
pKd (Inadl_10, Q8NI35; [3]): below the threshold
pKd (LNX2_3, Q8N448; [3]): below the threshold
pKd (GRIP1_3, Q9Y3R0; [3]): below the threshold
pKd (DVL3, Q92997; [3]): below the threshold
pKd (GRIP2_5, Q9C0E4; [3]): below the threshold
pKd (SCRIB_1, Q14160; [3]): below the threshold
pKd (PDZRN4_1, Q6ZMN7; [3]): below the threshold
pKd (CARD11, Q9BXL7; [3]): below the threshold
pKd (MAGI2_3, Q86UL8; [3]): below the threshold
pKd (GRIP1_7, Q9Y3R0; [3]): 3.63
Binder: RRVRKLPSTTL [RPS6KA1_-2P, Q15418]
